Earlier results as cited in article PMC8087844.

Target: IL2R alpha (CD25) (Homo sapiens) (UniProt P01589)
Sequence of UniProt P01589 (P01589 22-240): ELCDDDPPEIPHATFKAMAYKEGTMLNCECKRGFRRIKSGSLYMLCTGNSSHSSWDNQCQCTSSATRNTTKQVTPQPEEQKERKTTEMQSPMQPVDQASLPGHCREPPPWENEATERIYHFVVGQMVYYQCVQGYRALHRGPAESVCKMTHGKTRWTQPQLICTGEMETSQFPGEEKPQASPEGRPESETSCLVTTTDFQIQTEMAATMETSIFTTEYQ

Kd: 0.3 nM
Substance: Daclizumab
